Data from patent US7981423B2, “Rage fusion proteins” (Transtech Pharma, Inc., priority 2004, dated 2011).

What was measured:
[1] = cited from earlier work
[2] = normal and diabetic rats; retention of immunoreactivity sRAGE; cited from earlier work
amphoterin (Ampho) = target: T1, amphoterin (Ampho) (Homo sapiens, UniProt P09429); test: In vitro ligand binding ELISA, immobilized amphoterin; conditions: various dilutions of fusion protein; FIG. 7
T1 sequence (P09429 1-215): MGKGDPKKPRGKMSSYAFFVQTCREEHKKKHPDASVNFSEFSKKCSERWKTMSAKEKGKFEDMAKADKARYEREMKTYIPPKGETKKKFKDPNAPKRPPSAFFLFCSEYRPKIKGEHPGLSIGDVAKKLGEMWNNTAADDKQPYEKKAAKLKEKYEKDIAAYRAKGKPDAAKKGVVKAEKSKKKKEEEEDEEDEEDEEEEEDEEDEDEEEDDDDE
Procedure: (§1) For example, the RAGE fusion protein may be used in a binding assay to identify potential RAGE ligands. In one example embodiment of such a binding assay, a known RAGE ligand may coated onto a solid substrate (e.g., Maxisorb plates) at a concentration of about 5 micrograms per well, where each well contains a total volume of about 100 microliters (μL). The plates may be incubated at 4° C. overnight to allow the ligand to absorb. Alternatively, shorter incubation periods at higher temperature (e.g., room temperature) may be used. […] The fusion protein bound to the immobilized ligand may be detected in a variety of ways. […] The bound complex may be detected by adding the alkaline phosphatase substrate, para-nitrophenylphosphate (PNPP), and measuring conversion of PNPP to para-nitrophenol (PNP) as an increase in absorbance at 405 nm. […] Binding was detected by the addition of an immunodetection complex containing a monoclonal mouse anti-human IgG1 diluted 1:11,000 to a final assay concentration (FAC) of 21 ng/100 μL, a biotinylated goat anti-mouse IgG diluted 1:500, to a FAC of […], and an avidin-linked alkaline phosphatase. […] Binding of the complex to the immobilized fusion protein was quantified by measuring conversion of PNPP to para-nitrophenol (PNP) which was-measured spectrophotornetrically at 405 nm. […]

S100b (S100) = target: T2, S100b (S100) (Homo sapiens, UniProt P04271); test: In vitro ligand binding ELISA, immobilized S100b; conditions: various dilutions of fusion protein; FIG. 7
T2 sequence (P04271 1-92): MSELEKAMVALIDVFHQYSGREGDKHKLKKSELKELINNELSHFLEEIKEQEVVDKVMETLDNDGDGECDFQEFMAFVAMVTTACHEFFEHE
Procedure: as §1

amyloid-beta (Abeta) = target: T3, amyloid-beta (Abeta) (Homo sapiens, UniProt P05067); test: In vitro ligand binding ELISA, immobilized amyloid-beta; conditions: various dilutions of fusion protein; FIG. 7
T3 construct: Amyloid Beta (1-40) from Biosource; purchased Biosource
T3 sequence (P05067 672-711 limits assumed): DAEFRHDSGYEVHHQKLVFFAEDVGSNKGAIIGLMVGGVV
Procedure: as §1

APP transgenic mice = test: Mouse model of AD (APP transgenic mice); format: in vivo; conditions: treated for 3 months, versus vehicle and human IgG1
Procedure: Experiments were performed to evaluate whether TTP-4000 could affect amyloid formation and cognitive dysfunction in a mouse model of AD. The experiments utilized transgenic mice expressing the human Swedish mutant amyloid precursor protein (APP) under the control of the PDGF-B chain promoter. Over time, these mice generate high levels of the RAGE ligand, amyloid beta (Aβ).
The APP mice (male) used in this experiment were designed by microinjection of the human APP gene (with the Swedish and London mutations) into mouse eggs under the control of the platelet-derived growth factor B (PDGF-B) chain gene promoter. The mice were generated on a C57BL/6 background and were developed by Molecular Therapeutics Inc. Animals were fed ad libituin and maintained by brother sister mating. The mice generated from this construct develop amyloid deposits starting at 6 months of age. Animals were aged for 6 months and then maintained for 90 days and sacrificed for amyloid quantification.
APP transgenic mice were administered vehicle or TTP4000 every other day [qod (i.p.)] for 90 days starting at 6 months of age. At the end of the experiment, animals were sacrificed and examined for AP plaque burden in the brain (i.e., plaque number). A 6-month control APP group was used to determine the baseline of amyloid deposits. In addition, at the end of the study, the animals were subjected to behavioral (Morris water maze) analysis. The investigators were blinded to the study compounds. Samples were given to the mice at 0.25 ml/mouse/every other day.
For histological examination, the animals were anesthetized with an intraperitoneal injection (IP) of sodium pentobarbital (50 mg/kg). The animals were transcardially perfused with 4° C., phosphate-buffered saline (PBS) followed by 4% paraformaldehyde. The brains were removed and placed in 4% paraformaldehyde over night. The brains were processed to paraffin and embedded. Ten serial 30-μm thick sections through the brain were obtained. Sections were subjected to primary antibody overnight at 4° C. (Aβ peptide antibody) in order to detect the amyloid deposits in the brain of the transgenic animals (Guo et al., J. Neurosci., 22:5900-5909 (2002)). Sections were washed in Tris-buffered saline (TBS) and secondary antibody was added and incubated for 1 hour at room temperature. After washing, the sections were incubated as instructed in the Vector ABC Elite kit (Vector Laboratories) and stained with […] (DAB). The reactions were stopped in water and cover-slipped after treatment with xylene. The amyloid area in each section was determined with a computer-assisted image analysis system, consisting of a Power Macintosh computer equipped with a Quick Capture frame grabber card, Hitachi CCD camera mounted on an Olympus microscope and camera stand. NIH Image Analysis Software, v. 1.55 was used. The images were captured and the total area of amyloid was determined over the ten sections. A single operator blinded to treatment status performed all measurements. Summing the amyloid volumes of the sections and dividing by the total number of sections was done to calculate the amyloid volume.
For quantitative analysis, an enzyme-linked immunosorbent assay (ELISA) was used to measure the levels of human total Aβ, Aβtotal and Aβ1-42 in the brains of APP transgenic mice (Biosource International., Camarillo, Calif.). Aβtotal and Aβ1-42 were extracted from mouse brains by guanidine hydrochloride and quantified as described by the manufacturer. […]

## human sRAGE: human soluble RAGE (e.g., SEQ ID NO: 4) [reference compound]
[1]
  half-life in plasma: about 2 hours
[2]
  half-life: less than 2 hours

## sRAGE: soluble RAGE: the RAGE protein that does not include the transmembrane region or the cytoplasmic tail [reference compound]
[1]
  half-life in plasma: only a few hours

B1: TTP-3000: three domain RAGE fusion protein (SEQ ID NO: 35): human RAGE amino acids 1-136 linked to CH2 and CH3 domains of human IgG (protein)
chain: MAAGTAVGAWVLVLSLWGAVVGAQNITARIGEPLVLKCKGAPKKPPQRLEWKLNTGRTEAWKVLSPQGGGPWDSVARVLPNGSLFLPAVGIQDEGIFRCQAMNRNGKETKSNYRVRVYQIPGKPEIVDSASELTAGPSVFLFPPKPKDTLMISRTPEVTCVVVDVSHEDPEVKFNWYVDGVEVHNAKTKPREEQYNSTYRVVSVLTVLHQDWLNGKEYKCKVSNKALPAPIEKTISKAKGQPREPQVYTLPPSRDELTKNQVSLTCLVKGFYPSDIAVEWESNGQPENNYKTTPPVLDSDGSFFLYSKLTVDKSRWQQGNVFSCSVMHEALHNHYTQKSLSLSPGK
Amphoterin (Ampho)
  binding to immobilized amphoterin (absorbance at 405 nm): specifically interact
S100b (S100)
  binding to immobilized S100b (absorbance at 405 nm): specifically interact
amyloid-beta (Abeta)
  binding to immobilized amyloid-beta (absorbance at 405 nm): specifically interact

B2: rodent sRAGE: rodent soluble RAGE (protein, UniProt Q62151 23-340, looked up)
extracellular domain: GQNITARIGEPLVLSCKGAPKKPPQQLEWKLNTGRTEAWKVLSPQGGPWDSVARILPNGSLLLPATGIVDEGTFRCRATNRRGKEVKSNYRVRVYQIPGKPEIVDPASELTASVPNKVGTCVSEGSYPAGTLSWHLDGKLLIPDGKETLVKEETRRHPETGLFTLRSELTVIPTQGGTHPTFSCSFSLGLPRRRPLNTAPIQLRVREPGPPEGIQLLVEPEGGIVAPGGTVTLTCAISAQPPPQVHWIKDGAPLPLAPSPVLLLPEVGHEDEGTYSCVATHPSHGPQESPPVSIRVTETGDEGPAEGSVGESGLGTLA
modifications: extracellular domain
notes: rodent soluble RAGE
[2]
  half-life: approximately 20 hours

B3: mouse sRAGE: mouse soluble RAGE used as comparator in the AD mouse model (protein, UniProt Q62151 23-340, looked up)
extracellular domain: B2 extracellular domain
modifications: extracellular domain
notes: mouse soluble RAGE used as comparator in the AD mouse model
APP transgenic mice; FIG. 14A
  Aβ plaques in the brain: fewer Aβ plaques
APP transgenic mice; FIG. 14B
  cognitive dysfunction (Morris water maze): less cognitive dysfunction
